Data from publication PMC7582152 (2020).

B1: wild-type canine cardiac calsequestrin (Casq2) [canine] / ER luminal domain of IRE1α (IRE1-NLD) [modified: covalently labeled with a red fluorescent tag (Monolith NT Protein Labeling Kit RED-NHS); covalently labeled with a red fluorescent … (parent complex)
chain 1: EEGLNFPTYDGKDRVVSLTEKNFKQVLKKYDVLCLYYHESVSSDKVAQKQFQLKEIVLELVAQVLEHKDIGFVMVDAKKEAKLAKKLGFDEEGSLYVLKGDRTIEFDGEFAADVLVEFLLDLIEDPVEIINSKLEVQAFERIEDQIKLIGFFKSEESEYYKAFEEAAEHFQPYIKFFATFDKGVAKKLSLKMNEVDFYEPFMDEPIAIPDKPYTEEELVEFVKEHQRPTLRRLRPEDMFETWEDDLNGIHIVAFAERSDPDGYEFLEILKQVARDNTDNPDLSIVWIDPDDFPLLVAYWEKTFKIDLFKPQIGVVNVTDADSVWMEIPDDDDLPTAEELEDWIEDVLSGKINTEDDDNEEGDDGDDDEDDDDDDGNNSDEESNDDSDDDDE
chain 2: IFGSTSTVTLPETLLFVSTLDGSLHAVSKRTGSIKWTLKEDPVLQVPTHVEEPAFLPDPNDGSLYTLGSKNNEGLTKLPFTIPELVQASPCRSSDGILYMGKKQDIWYVIDLLTGEKQQTLSSAFADSLCPSTSLLYLGRTEYTITMYDTKTRELRWNATYFDYAASLPEDDVDYKMSHFVSNGDGLVVTVDSESGDVLWIQNYASPVVAFYVWQREGLRKVMHINVAVETLRYLTFMSGEVGRITKWKYPFPKETEAKSKLTPTLYVGKYSTSLYASPSMVHEGVAVVPRGSTLPLLEGPQTDGVTIGDKGECVITPSTDVKFDPGLKSKNKLNYLRNYWLLIGHHETPLSASTKMLERFPNNLPKHRENVIPADSEKKSFEEVINLVDQTSENAPTTVSRDVEEKPAHAPARPEAPVDSMLKD

Variants of: B1
Experiment: microscale thermophoresis (MST); IRE1-NLD covalently labeled with a red fluorescent tag; increasing amounts of Casq2 or Casq2 mutant; three independent measurements; parent: 4.3e+03 nM; read off a plot

Kd [µM]	Variant
~2.8	chain 1 L148H
~3.2	chain 1 P310S
~5.9	chain 1 R14Q
~1.4	chain 1 K161R

Further lines, the variant ahead of its results:

Variant	Kd [µM]
chain 1 D332G	~4.8
chain 1 D288H	~3.3
chain 1 G313R	~4.3
